In patent US20160228563A1 (USTAV ORGANICKE CHEMIE A BIOCHEMIE AKADEMIE VED CR V V I, published 2016):
Square brackets hold non-standard residues; d marks the D form. * marks the point of attachment. 1Nal = N[C@@H](Cc1cccc2ccccc12)C(=O)O; Stearoyl = CCCCCCCCCCCCCCCCCC(=O)*; Palmitoyl = CCCCCCCCCCCCCCCC(=O)*; Nle = CCCC[C@H](N)C(=O)O

T1: human PrRP receptor GPR10 transfected in CHO cells (human, UniProt P49683 1-370)
T1 construct: whole, on cells; also called GPR10 human receptor; human GPR10 receptor
T1 sequence (looked up): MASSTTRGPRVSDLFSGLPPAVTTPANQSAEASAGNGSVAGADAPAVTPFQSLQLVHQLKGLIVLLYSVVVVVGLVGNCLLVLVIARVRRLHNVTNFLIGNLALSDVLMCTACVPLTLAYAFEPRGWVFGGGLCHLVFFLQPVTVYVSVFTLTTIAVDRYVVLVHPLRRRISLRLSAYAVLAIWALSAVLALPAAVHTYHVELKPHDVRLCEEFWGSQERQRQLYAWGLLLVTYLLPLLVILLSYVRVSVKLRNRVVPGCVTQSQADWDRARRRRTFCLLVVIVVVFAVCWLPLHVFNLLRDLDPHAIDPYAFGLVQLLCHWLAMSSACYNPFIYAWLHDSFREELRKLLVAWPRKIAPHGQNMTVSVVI

T2: rat PrRP receptor (GPR10) in RC-4B/C rat pituitary cells (rat, UniProt Q64121 1-370)
T2 construct: whole, on cells; receptor as expressed by RC-4B/C cells (ATCC); also called rat receptor; rat RC-4B/C cell receptor
T2 sequence (looked up): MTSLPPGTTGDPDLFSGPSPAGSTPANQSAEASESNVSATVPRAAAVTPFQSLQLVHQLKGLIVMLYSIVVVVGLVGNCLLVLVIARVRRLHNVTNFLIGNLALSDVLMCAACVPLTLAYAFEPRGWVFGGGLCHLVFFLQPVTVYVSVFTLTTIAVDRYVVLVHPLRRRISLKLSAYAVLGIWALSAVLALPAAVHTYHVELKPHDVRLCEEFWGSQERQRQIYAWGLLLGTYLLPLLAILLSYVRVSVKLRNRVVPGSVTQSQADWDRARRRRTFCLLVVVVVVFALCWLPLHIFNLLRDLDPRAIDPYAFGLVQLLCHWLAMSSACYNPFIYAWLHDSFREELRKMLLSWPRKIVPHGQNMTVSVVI

B1: PrRP analog no. 9 (peptide)
peptide: Stearoyl-SRAHQHS[Nle]ETRTPDINPAWYTGRGIRPVGRF-NH2
B2: PrRP analog no. 12 (peptide)
peptide: Palmitoyl-SRAHQHS[Nle]ETRTPDINPAWYTGRGIRPVGR[1Nal]-NH2

Experiments:
[1] = molecular target: T1, human PrRP receptor GPR10 transfected …; assay: 125I-human PrRP31 displacement, CHO-GPR10 cells
Protocol: (§1) Competitive binding experiments were performed according to Motulsky and Neubig (Motulsky, A., et al., “Analyzing radioligand binding data,” Curr Protoc Neurosci, Chapter 7, Unit 7.5, 2002). Binding experiments were conducted with rat pituitary cells, and with Chinese Hamster Ovary (CHO) cells as follows:
CHO cells transfected with human PrRP receptor GPR10 (Perkin Elmer, USA) were grown on 24-well plates coated with polyethyleneimine. The cells were grown to the optimal density of 40-80 thousand cells per well.
(§2) Plates were incubated for 60 minutes at room temperature. After incubation, the cells were solubilized in 0.1 mol/l solution of NaOH, and the radioactivity bound to the cells was counted using a γ-counter. The experiments were performed in duplicate, and repeated at least three times.

[2] = molecular target: T2, rat PrRP receptor (GPR10) in RC-4B/C …; assay: 125I-rat PrRP31 displacement, RC-4B/C cells
Protocol: as §1
The rat pituitary cell line RC-4B/C (ATCC, Manassas, USA) was grown on 24-well plates which had their bottom coated with polyethyleneimine. The cells were grown to the optimal density of 300-450 thousand cells per well.
as §2

Binder	% of PrRP31 [1] [%]	% of PrRP31 [2] [%]
B1	7	–
B2	–	111
